Measured values: patent publication US20170349669A1 (Hoffmann-La Roche, published 2017)
Substitutions are numbered along the chain they refer to. Where two headings read alike, the source gives them in different places.

T1: human VEGFA-121-His (human, UniProt P15692-9 27-147)
T1 construct: Captured on an anti-His antibody surface; P15692 is the canonical VEGF-A entry, and the 121 isoform is one of its splice forms; also called VEFGA-121-His; not shown: His tag
T1 sequence (looked up): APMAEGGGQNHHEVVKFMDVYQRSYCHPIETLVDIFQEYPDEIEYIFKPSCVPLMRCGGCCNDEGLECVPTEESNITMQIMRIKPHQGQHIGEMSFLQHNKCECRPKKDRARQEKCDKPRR

T2: human Ang-2-RBD-Fc (human, UniProt O15123 275-496, limits assumed)
T2 construct: domain: RBD; Used as analyte in solution; The KD is called apparent; not shown: Fc part
T2 sequence (looked up): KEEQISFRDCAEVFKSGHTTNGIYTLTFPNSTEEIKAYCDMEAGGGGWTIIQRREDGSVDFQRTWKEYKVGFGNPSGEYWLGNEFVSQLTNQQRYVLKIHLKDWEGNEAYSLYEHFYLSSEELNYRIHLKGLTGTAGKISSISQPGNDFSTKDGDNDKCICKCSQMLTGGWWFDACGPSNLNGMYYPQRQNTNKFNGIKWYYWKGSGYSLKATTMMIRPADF

B1: Ang2VEGF_280 (bispecific antibody, human IgG1, kappa)
heavy 1: not shown
light 1: EVQLVESGGGLVQPGGSLRLSCAASGYTFTNYGMNWVRQAPGKGLEWVGWINTYTGEPTYAADFKRRFTFSLDTSKSTAYLQMNSLRAEDTAVYYCAKYPHYYGSSHWYFDVWGQGTLVTVSSASTKGPSVFPLAPSSKSTSGGTAALGCLVKDYFPEPVTVSWNSGALTSGVHTFPAVLQSSGLYSLSSVVTVPSSSLGTQTYICNVNHKPSNTKVDKKVEPKSC
heavy 2: not shown
light 2: QPGLTQPPSVSVAPGQTARITCGGNNIGSKSVHWYQQKPGQAPVLVVYDDSDRPSGIPERFSGSNSGNTATLTISRVEAGDEADYYCQVWDSSSDHYVFGTGTKVTVLRTVAAPSVFIFPPSDKKLKSGTASVVCLLNNFYPREAKVQWKVDNALQSGNSQESVTEQDSKDSTYSLSSTLTLSKADYEKHKVYACEVTHQGLSSPVTKSFNRGEC
notes: Bivalent CrossMAb-Fab with four different chains; also called Ang2VEGF-0280
B2: Ang2VEGF_290 (bispecific antibody, human IgG1, kappa, lambda)
heavy 1: not shown
light 1: B1 light 1
heavy 2: not shown
light 2: QPGLTQPPSVSVAPGQTARITCGGNNIGSKSVHWYQQKPGQAPVLVVYDDSDRPSGIPERFSGSNSGNTATLTISRVEAGDEADYYCQVWDSSSDHYVFGTGTKVTVLGQPKAAPSVTLFPPSSEELQANKATLVCLISDFYPGAVTVAWKADSSPVKAGVETTTPSKQSNNKYAASSYLSLTPEQWKSHRSYSCQVTHEGSTVEKTVAPTECS
notes: The Ang2 arm has a lambda light chain; also called Ang2VEGF-0290 (wt); Ang2VEGF-0290
B3: Ang2VEGF_279 (bispecific antibody, human IgG1, kappa, lambda)
heavy 1: not shown
light 1: B1 light 1
heavy 2: not shown
light 2: B2 light 2 with E125K, E126K
notes: The Ang2 arm has a lambda light chain; also called Ang2VEGF-0279

Assays:
human VEGFA-121-His [1] = target: T1, human VEGFA-121-His; test: SPR Biacore T200, VEGFA-121-His captured via anti-His, antibody as analyte, 1:1 Langmuir
Protocol: (§1) Binding of indicated antibodies to human VEGFA-121 was investigated by surface plasmon resonance using a BIACORE® T200 instrument (GE Healthcare). Around 10000 (RU) of anti His antibody (1 μg/ml anti His antibody; Order Code: 28995056; GE Healthcare Bio-Sciences AB, Sweden) were coupled on a Series S CM5 chip (GE Healthcare BR-1005-30) at pH 5.0 by using an amine coupling kit supplied by the GE Healthcare. HBS-N (10 mM HEPES, 150 mM NaCl pH 7.4, GE Healthcare) was used as running buffer during the immobilization procedure. For the following kinetic characterization, sample and running buffer was PBS-T (10 mM phosphate buffered saline including 0.05% Tween20) at pH 7.4. The flow cell was set to 25° C.—and the sample block set to 12° C.—and primed with running buffer twice prior to kinetic characterization.
(§2) VEFGA-121-His was captured by injecting a 0.5 μg/ml solution for 30 sec at a flow of 5 μl/min. The association was measured by injection of the indicated antibodies in various concentrations in solution for 180 sec at a flow of 30 μl/min starting with 1000 nM in 1:3 serial dilutions. The dissociation phase was monitored for up to 600 sec and triggered by switching from the sample solution to running buffer. The surface was regenerated by 60 sec washing with a Glycine pH 1.5 solution at a flow rate of 30 μl/min. Bulk refractive index differences were corrected by subtracting the response obtained from a anti His antibody surface. Blank injections are also subtracted (=double referencing). For calculation of KD and other kinetic parameters the Langmuir 1:1 model was used.

human VEGFA-121-His [2] = target: T1, human VEGFA-121-His; test: as above; remark: listed apart in the source
Protocol: as §1, §2

human Ang-2-RBD-Fc [3] = target: T2, human Ang-2-RBD-Fc; test: SPR Biacore T200, apparent KD, antibody captured via anti-human F(ab')2, Ang2-RBD-Fc as analyte
Protocol: (§3) Binding of indicated antibodies to human Ang-2-RBD-Fc was investigated by surface plasmon resonance using a BIACORE® T200 instrument (GE Healthcare). Around 8000 (RU) of goat anti human F(ab′)₂ (10 μg/ml anti human F(ab)′₂; Order Code: 28958325; GE Healthcare Bio-Sciences AB, Sweden) were coupled on a Series S CM5 chip (GE Healthcare BR-1005-30) at pH 5.0 by using an amine coupling kit supplied by the GE Healthcare. HBS-N (10 mM HEPES, 150 mM NaCl pH 7.4, GE Healthcare) was used as running buffer during the immobilization procedure. For the following kinetic characterization, sample and running buffer was PBS-T (10 mM phosphate buffered saline including 0.05% Tween20) at pH 7.4. The flow cell was set to 25° C.—and the sample block set to 12° C.—and primed with running buffer twice prior to kinetic characterization.
(§4) The bispecific antibody was captured by injecting a 5 nM solution for 25 sec at a flow of 5 μl/min. The association was measured by injection of human Ang2-RBD-Fc in various concentrations in solution for 120 sec at a flow of 30 μl/min starting with 100 nM in 1:3 serial dilutions. The dissociation phase was monitored for up to 180 sec and triggered by switching from the sample solution to running buffer. The surface was regenerated by 60 sec washing with a Glycine pH 2.1 solution at a flow rate of 30 μl/min. Bulk refractive index differences were corrected by subtracting the response obtained from a goat anti human F(ab′)₂ surface. Blank injections are also subtracted (=double referencing). For calculation of apparent KD the Langmuir 1:1 model was used.

human Ang-2-RBD-Fc [4] = target: T2, human Ang-2-RBD-Fc; test: as above; remark: listed apart in the source
Protocol: as §3, §4

Binder | Kd (human VEGFA-121-His [1]) [nM] | Kd (human VEGFA-121-His [2]) [nM] | Kd (human Ang-2-RBD-Fc [3]) [nM] | Kd (human Ang-2-RBD-Fc [4]) [nM]
B1 | 7 | 7 | 3 | 3
B2 | 8 |  |  | 3
B3 | 6 |  |  | 5
